Source: article PMC10832047

Target: HIV-1 capsid protein (CA), wild type (HIV-1 (NL4-3 / R9 clones))

owl-monkey TRIMCyp (natural protein)
TRIMCyp restriction assay: infectivity of control pseudoviruses with pure CA^WT cores in TZM-bl cells expressing TRIMCyp, 48 h (fold reduction in infection): 10
